Assay results: PMC6768651, “A ubiquitin-like domain controls protein kinase D dimerization and activation by trans-autophosphorylation” (The Journal of Biological Chemistry, 2019)
Positions count from the first letter of the chain named. Names and notes keep the numbering of the source.

B1: DKF-1 ULD (DKF-1^1–94) [C. elegans] / Atto488-labeled DKF-1 ULD^R42C [modified: Atto488 (maleimide-conjugated) on cysteine 42; Atto488 (maleimide-conjugated) on cysteine 42] [C. elegans] (parent complex)
chain 1: MDGSQGSTDYGDHVVLRYGGTREMVPLIRHEQMLDMLMERARQIVQGFGNLDTRNMYLFRHEYNSPTLLYPITSASQITSGSILEIILVDRTEA
chain 2: B1 chain 1 with R42C

Variants of: B1
Test: fluorescence anisotropy; highest titration point: ULD F59E about 27 µM; parent value is the highest ULD WT point, about 20 µM; parent: 0.024; read off a plot

response	Variant
~0.003	chain 1 F59E
